US20080274100A1 (published 2008)

B1: Y1 scFv (scFv)
chain: EVQLVESGGGVVRPGGSLRLSCAASGFTFDDYGMSWVRQAPGKGLEWVSGINWNGGSTGYADSVKGRFTISRDNAKNSLYLQMNSLRAEDTAVYYCARMRAPVIWGQGTLVTVSRGGGGSGGGGSGGGGSSELTQDPAVSVALGQTVRITCQGDSLRSYYASWYQQKPGQAPVLVIYGKNNRPSGIPDRFSGSSSGNTASLTITGAQAEDEADYYCNSRDSSGNHVVFGGGTKLTVLGAAAEQKLISEEDLNGAA
B2: D1 scFv (scFv)
scFv: EVQLVESGGGVVRPGGSLRLSCAASGFTFDLNPKVKHMWVRQAPGKGLEWVSGINWNGGSTGYADSVKGRFTISRDNAKNSLYLQMNSLRAEDTAVYYCARLRSPFGWGQGTLVTVSRGGGGSGGGGSGGGGSSELTQDPAVSVALGQTVRITCQGDSLRSYYASWYQQKPGQAPVLVIYGKNNRPSGIPDRFSGSSSGNTASLTITGAQAEDEADYYCNSRDSSGNHVVFGGGTKLTVLGAAAEQKLISEEDLNGAA
B3: S1 scFv (scFv)
scFv: EVQLVESGGGVVRPGGSLRLSCAASGFTFDLNPKVKHMWVRQAPGKGLEWVSGINWNGGSTGYADSVKGRFTISRDNAKNSLYLQMNSLRAEDTAVYYCARLRPPFLWGQGTLVTVSRGGGGSGGGGSGGGGSSELTQDPAVSVALGQTVRITCQGDSLRSYYASWYQQKPGQAPVLVIYGKNNRPSGIPDRFSGSSSGNTASLTITGAQAEDEADYYCNSRDSSGNHVVFGGGTKLTVLGAAAEQKLISEEDLNGAA
B4: S11 scFv (scFv)
scFv: EVQLVESGGGVVRPGGSLRLSCAASGFTFDLNPKVKHMWVRQAPGKGLEWVSGINWNGGSTGYADSVKGRFTISRDNAKNSLYLQMNSLRAEDTAVYYCARLRYPFFWGQGTLVTVSRGGGGSGGGGSGGGGSSELTQDPAVSVALGQTVRITCQGDSLRSYYASWYQQKPGQAPVLVIYGKNNRPSGIPDRFSGSSSGNTASLTITGAQAEDEADYYCNSRDSSGNHVVFGGGTKLTVLGAAAEQKLISEEDLNGAA
notes: also called scFv S11

Key:
GPIb on human platelets [1] = target: T1, GPIb on human platelets (human, UniProt P07359 17-652); experiment: cell-based or functional assay
glycocalicin = target: T2, glycocalicin (UniProt P07359 17-506); experiment: SPR (BIAcore 3000), glycocalicin immobilized on CM5 chip
T2 construct: domain: glycocalicin (the outer membrane portion derived from GPIb); also called purified glycocalicin; purified GPIbα

GPIb on human platelets [2] = target: T1, GPIb on human platelets; experiment: FACS on human platelets
[3] = target: T3, platelet GPIb, guinea pig (guinea pig platelets) (guinea pig); experiment: FACS on guinea pig platelets
T3 construct: whole, on cells; also called guinea pig derived platelets

[4] = target: T4, human CCR5 on transfected L1.2 cells (human, UniProt P51681 1-352); experiment: flow cytometry, L1.2 cells transfected with human CCR5
T4 construct: whole, on cells

[5] = target: T5, CXCR4 point mutant Tyr-21 to alanine (UniProt P61073 1-352); experiment: epitope mapping with tyrosine-to-alanine point mutants of CXCR4
T5 construct: also called CXCR4 Y21A
T5 sequence (P61073 other isoform, or with tags, fused parts or gaps mutant limits assumed): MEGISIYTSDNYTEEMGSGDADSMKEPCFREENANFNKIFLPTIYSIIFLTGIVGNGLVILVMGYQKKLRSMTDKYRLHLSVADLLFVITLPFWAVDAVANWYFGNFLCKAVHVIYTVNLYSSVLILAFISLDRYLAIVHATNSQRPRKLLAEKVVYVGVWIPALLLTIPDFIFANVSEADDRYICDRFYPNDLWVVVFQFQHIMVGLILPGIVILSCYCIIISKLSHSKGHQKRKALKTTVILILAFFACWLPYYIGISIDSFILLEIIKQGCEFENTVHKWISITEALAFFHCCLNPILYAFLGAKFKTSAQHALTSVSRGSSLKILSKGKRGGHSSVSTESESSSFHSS

T1 sequence (P07359 17-652): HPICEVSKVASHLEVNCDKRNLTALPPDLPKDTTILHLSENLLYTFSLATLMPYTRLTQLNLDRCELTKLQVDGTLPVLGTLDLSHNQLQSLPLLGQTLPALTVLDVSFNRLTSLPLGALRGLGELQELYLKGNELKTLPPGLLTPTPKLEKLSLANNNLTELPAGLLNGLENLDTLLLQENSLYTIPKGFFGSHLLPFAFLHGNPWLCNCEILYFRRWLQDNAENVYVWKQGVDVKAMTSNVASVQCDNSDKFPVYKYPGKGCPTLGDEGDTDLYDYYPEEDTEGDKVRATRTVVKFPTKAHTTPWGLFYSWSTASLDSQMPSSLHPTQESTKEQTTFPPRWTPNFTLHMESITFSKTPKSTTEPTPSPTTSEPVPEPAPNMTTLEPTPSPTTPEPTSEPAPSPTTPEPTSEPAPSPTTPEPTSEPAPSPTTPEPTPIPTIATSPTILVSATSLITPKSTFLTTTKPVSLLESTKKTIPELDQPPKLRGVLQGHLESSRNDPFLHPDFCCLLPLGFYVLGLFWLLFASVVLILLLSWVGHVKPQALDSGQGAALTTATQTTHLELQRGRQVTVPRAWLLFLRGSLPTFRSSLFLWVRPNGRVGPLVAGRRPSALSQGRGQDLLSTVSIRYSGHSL
T2 sequence (P07359 17-506 limits assumed): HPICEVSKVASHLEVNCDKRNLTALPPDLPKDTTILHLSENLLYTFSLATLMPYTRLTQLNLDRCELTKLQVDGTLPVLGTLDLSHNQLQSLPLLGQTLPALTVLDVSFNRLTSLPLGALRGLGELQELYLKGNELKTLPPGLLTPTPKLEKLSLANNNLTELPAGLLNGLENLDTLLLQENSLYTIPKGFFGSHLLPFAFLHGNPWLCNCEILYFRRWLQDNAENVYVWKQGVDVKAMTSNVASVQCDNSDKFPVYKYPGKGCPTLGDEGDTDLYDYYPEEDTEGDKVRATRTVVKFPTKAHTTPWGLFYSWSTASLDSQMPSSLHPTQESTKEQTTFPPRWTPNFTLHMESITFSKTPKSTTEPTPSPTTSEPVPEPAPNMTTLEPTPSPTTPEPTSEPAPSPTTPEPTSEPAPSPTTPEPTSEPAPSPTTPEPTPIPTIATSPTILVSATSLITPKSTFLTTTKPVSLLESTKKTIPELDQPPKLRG
T4 sequence (P51681 whole entry): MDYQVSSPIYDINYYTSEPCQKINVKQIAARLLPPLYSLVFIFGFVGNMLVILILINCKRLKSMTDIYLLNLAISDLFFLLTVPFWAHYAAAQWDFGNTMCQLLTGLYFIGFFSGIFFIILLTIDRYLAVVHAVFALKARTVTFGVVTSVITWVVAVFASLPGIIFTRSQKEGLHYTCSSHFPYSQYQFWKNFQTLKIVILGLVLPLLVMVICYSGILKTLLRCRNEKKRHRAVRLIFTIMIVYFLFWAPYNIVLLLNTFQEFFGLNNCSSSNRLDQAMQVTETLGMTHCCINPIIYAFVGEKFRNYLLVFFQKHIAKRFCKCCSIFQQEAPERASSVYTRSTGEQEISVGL

Row | Binder | inhibition of ristocetin-induced, vWF-dependent platelet aggregation in washed platelets (IC50) (GPIb on human platelets [1]) [nM] | Kd (glycocalicin) [nM] | koff (glycocalicin) [s⁻¹] | fold binding capacity relative to Y1 (GPIb on human platelets [2]) [fold] | fold binding capacity relative to Y1 [3] [fold] | binding result [4] | binding result [5]
1 | B1 | 800 | 450 | 0.12 |  |  |  | 
2 | B2 |  |  |  | ~25 | ~25 |  | 
3 | B3 |  |  |  |  | ~25 |  | 
4 | B4 |  |  |  | ~25 | ~25 | binds | no binding
